Literature values as cited in PMC10814857, “Functional Classification and Interaction Selectivity Landscape of the Human SH3 Domain Superfamily” (Cells, 2024).

Key:
[1] = target: PACSIN1 SH3 domain; parameters: method as in ref [60] (a number printed in a supplementary file, which may have a reference list of its own: not looked up in the article's list); conditions: PACSIN1, ITC, Table S4; ref [60]
[2] = target: SH3GL2 (Endophilin-A1) SH3 domain; conditions: ITC, Table S4, ref [60]
Method: page 6: […] […] […] PAK2 […] PXXXPR PXXXPR 1.05 ITC [34] TRSVI ITSN1-2 Synthetic […] Exceptional [W/F][R/W]xSx[A/ 53 ITC [29] peptide G][F/Y][L/V]xGP[ W/L] NCK1-2 N-WASP GP[…] … 147 HSQC [64] VA[…] 199 PLCG1 SOS1 AAPV[…] … 0.20mM SPR [75] AADS[…] 0.40mM AAES[…] 0.70mM AAIA[…] 0.28mM BAIAP2L1 EspFUR45 IPP[…] … 0.5 nM ITC [76] (IRTKS) 9 SORBS2- Synthetic […] Exceptional XRXGXAYLXYVX 38 ITC [29] 1 peptide Synthetic RL[…](L/P) ...

[3] = target: bPIX (ARHGEF7) SH3 domain; parameters: method as in 3 sources, one per row (each row's own in cited_ref): ref [33] (a number printed in a supplementary file, which may have a reference list of its own: not looked up in the article's list) ||| ref [60] (a number printed in a supplementary file, which may have a reference list of its own: not looked up in the article's list) ||| ref [34] (a number printed in a supplementary file, which may have a reference list of its own: not looked up in the article's list); conditions: ITC, Table S4, ref [60]

Kd [1]: 4.33 µM
Kd [2]: 457 nM
Kd [3]: 1440 nM
B1: PEDAGAGENRRVSGNNSPSLSNGGFKPSRPPRPSRPPPPTPRRPASVNGSPSATSESDGSSTG (peptide)
chain: PEDAGAGENRRVSGNNSPSLSNGGFKPSRPPRPSRPPPPTPRRPASVNGSPSATSESDGSSTG
notes: published Itch proline-rich peptide
